This data set has as its system MS2 coat protein. As to the kind of experiment: apparent KD of MS2 coat protein; designed switch direction (-1 OFF switch, 1 ON switch): -1; higher = weaker reporter binding. In short, it runs like this:
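RNA switches sharing common flanks were transcribed by stalled E. coli RNA polymerase on Illumina chips. A doubling series of SNAP-549-labelled MS2 coat protein, from 0.7 or 1.5 nM to 3 µM, was applied in Tris-HCl pH 7.5 buffer with KCl, MgCl2, BSA, DTT, tRNA and Tween-20. Each step lasted 0.8–1.5 h at the bottom of the series and 10–20 min at the top. Normalised cluster fluorescence was curve-fitted, giving apparent KD as the per-design median over clusters.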

The mark [1] stands for this setting: input ligand: microRNA oligo, concentration not stated.
The mark [2] stands for this setting: Eterna round: R95, input ligand: microRNA oligo, concentration not stated.
Setting [3] is: Eterna round: R95, input ligand: FMN 200 uM.
Setting [4] is: Eterna round: R95, input ligand: none.

Consider 30 sequences from the supplement of paper PMC9170038.

As for “GCAGCAUAGAUGAAAGUCUGAUACAUGAGGAUCACCCAUGUACAGGAUAUGGUCUGGAUUACAGGCCAGAAGGGUACAAGCUGC [Eli exng3 - 013] (Eterna round: R96, puzzle: Exclusion NG 3)”, the “apparent KD of MS2 coat protein” value reads like this: (input ligand: FMN 200 uM) 14.4 nM; under setting [1], 10.6 nM; (input ligand: none) 12.8 nM.

Regarding “AUAAUGUGAGGAUAUCAGUAAGAAUGCCUCGGCAUUCUUACUGAGAAGGCACAUGAGGAUCACCCAUGUGAUUA [E4/4-B2] (Eterna round: R97, puzzle: Exclusion 4)”, the “apparent KD of MS2 coat protein” value turned out to be 596 nM (input ligand: FMN 200 uM) and 182 nM (input ligand: none).

Regarding “UCCAAACAUGAGGAUCACCCAUGUGAGGAUAUGAUACUAUGUACUUCGGUACAUAGUAUCAGAAGGCACAUCCA [Ex1-3: 10] (puzzle: Exclusion 1)”, under setting [2], the “apparent KD of MS2 coat protein” value amounted to 13.4 nM.

In the case of “GUUGUUUAUGUAGGAUAUGCCUGGCGUGCCUUUGCAGAAGGACAUGAGGAUCACCCAUGUAUUGCGGUCUGCGUUCAGAUCGCG [salish99_ExNG1_r4_040] (Eterna round: R96, puzzle: Exclusion NG 1)”, the “apparent KD of MS2 coat protein” value came out at 58.3 nM (input ligand: FMN 200 uM), 27.8 nM under setting [1] and 30 nM (input ligand: none).

With “AAUUAAUGUGUGAGGAUAUUGAUGGAAUGACUUAUUAAGAAGGCACAUGAGGAUCACCCAUGUGGGAAGUCACG [JR_BMEx4_Sub015] (Eterna round: R97, puzzle: Brourd's mod of Exclusion 4)”, the “apparent KD of MS2 coat protein” value (input ligand: FMN 200 uM) worked out at 27.6 nM and the “apparent KD of MS2 coat protein” value (input ligand: none) turned out to be 18.6 nM.

Take “ACAUGAGGAUCACCCAUGUUUAUUGGGUACUAUACUAACAGCAAGGAUAUGCAAAUUUUUUUUACGCAGAAGGUGCAGGAACCC [JR_ExcNG3_Sub069] (Eterna round: R96, puzzle: Exclusion NG 3)”: the “apparent KD of MS2 coat protein” value is, setting by setting: (input ligand: FMN 200 uM) 38.3 nM; under setting [1], 33.1 nM; (input ligand: none) 52.8 nM.

“CACCGUUACAGAGGAUAUGUCACAUGAGGAUCACCCAUGUAAUAAAUGAGAAUUUCGAAUGUAACACAGAAGGCUGGAAUCGGC [Ostricism 76 - Jieux - Exclusion NG 2] (Eterna round: R96, puzzle: Exclusion NG 2)”: the “apparent KD of MS2 coat protein” value is, setting by setting: (input ligand: FMN 200 uM) 37.1 nM; under setting [1], 18.1 nM; (input ligand: none) 26.5 nM.

Consider “AUAGUAUUGCAAGGAUAUCGAUUUAGUUUGUUUCGAGAAGGUGCUUUAGUUUAUACCUCUUGUUUACAUGAGGAUCACCCAUGU [JR_ExcNG1_Sub049] (Eterna round: R96, puzzle: Exclusion NG 1)”, for which the “apparent KD of MS2 coat protein” value was determined as 18.5 nM (input ligand: FMN 200 uM), 19.2 nM under setting [1] and 27.5 nM (input ligand: none).

As to “AACCCAAUGGCAGGAUAUAGUAGACGACUCGGUCUAGAAGGGCCGCACAUGACAUGAGGAUCACCCAUGUUUCAUCUGAGGGAC [Eternabot solution 27] (Eterna round: R96, puzzle: Exclusion NG 1)”, the “apparent KD of MS2 coat protein” value was 14.1 nM (input ligand: FMN 200 uM), 14 nM under setting [1] and 19.4 nM (input ligand: none).

As to “AUUUAAUUUAAUAAGAUCACAUGAGGAUCACCCAUGUAUAUAUAGGAUAUCAGCUCGUUUAGAGCUGAGAAGGAUAUAUACUAU [ExNG3/7-B2] (Eterna round: R96, puzzle: Exclusion NG 3)”, the “apparent KD of MS2 coat protein” value (input ligand: FMN 200 uM) came out at 190 nM, the “apparent KD of MS2 coat protein” value under setting [1] amounted to 237 nM and the “apparent KD of MS2 coat protein” value (input ligand: none) was found to be 278 nM.

As to “ACCUCACAUGAGGAUCACCCAUGUUAGGAUAUCUCGAUGCUCCACGGGCGGUAGCAUCAGAGAAGGAACGUGCU [Vematior] (puzzle: Exclusion 1)”, the “apparent KD of MS2 coat protein” value under setting [2] was 19 nM.

As for “UUUUAACAUGAGGAUCACCCAUGUCAGGAUAUGCUAUUUUUUUUUUUUUUUUUUUUUUGCAGAAGGGACAUUUU [My solution] (puzzle: Exclusion 1)”, the “apparent KD of MS2 coat protein” value under setting [3] turned out to be 78.5 nM, the “apparent KD of MS2 coat protein” value under setting [2] came out at 29.4 nM and the “apparent KD of MS2 coat protein” value under setting [4] was found to be 55.7 nM.

For “AGGAUGUGAGGAUAUCCAUCCCGCGAAUACGGGUAAUAAAUGGAGAAGGCACAUGAGGAUCACCCAUGUGAUGA [Ceersois] (Eterna round: R97, puzzle: Exclusion 4)”, the “apparent KD of MS2 coat protein” value reads like this: (input ligand: FMN 200 uM) 262 nM; (input ligand: none) 54.1 nM.

Turning to “AGUAAUGUAUAAGGAUAUCUCGCAAAUAAAGGCAGAGAAGGUAUACCCACUUGAGGAUCACCCAAGUCUCGUGUGCCUGGUGGA [Mutated MS2 EX1.30] (Eterna round: R96, puzzle: Exclusion NG 1)”, the “apparent KD of MS2 coat protein” value amounted to 23 nM (input ligand: FMN 200 uM), 20.1 nM under setting [1] and 25.1 nM (input ligand: none).

Consider “AGUCCUGGAGUUAGGAUAUGGAGUAUCGCUGCGCUUCAGAAGGGACUUGAGGAUCACCCAAGUAGCCGUGAGGG [salish99_bmod_ex4_r4_006] (Eterna round: R97, puzzle: Brourd's mod of Exclusion 4)”, for which the “apparent KD of MS2 coat protein” value stood at 82.9 nM (input ligand: FMN 200 uM) and 60.2 nM (input ligand: none).

As to “CCUUAUCCACAGGAUAUGCUCAUCUAAUGAUGAGCAGAAGGGUGGACAUGAGGAUCACCCAUGUUUAUCAAUGG [Omei Ex6 D3] (Eterna round: R97, puzzle: Exclusion 6)”, the “apparent KD of MS2 coat protein” value reads like this: (input ligand: FMN 200 uM) 675 nM; (input ligand: none) 1040 nM.

For “GUCGAUGUCAAAGGAUAUCAGCACGUGUAGUGCUGAGAAGGUUGAACAUGAGGAUCACCCAUGUAGAUCAUUAACGACUUAAUU [ENG1/10-A3] (Eterna round: R96, puzzle: Exclusion NG 1)”, the “apparent KD of MS2 coat protein” value is, setting by setting: (input ligand: FMN 200 uM) 56.1 nM; under setting [1], 20.3 nM; (input ligand: none) 22.9 nM.

With “UGUUGUCACGCAGGAUAUGUAUGAGGAUCACCCAUUAAUAAAUUUUAACCACGAGGAUCACCCGUGUAGAAGGGCGGGACAACA [pwkr exNG2 2xF5 1xFMN.14] (Eterna round: R96, puzzle: Exclusion NG 2)”, the “apparent KD of MS2 coat protein” value worked out at 30.6 nM (input ligand: FMN 200 uM), 20.1 nM under setting [1] and 29.9 nM (input ligand: none).

Consider “CAGUACUGAGGAUAUACAUGAGGAUCACCCAUGUGUUCCAGCUAGGAAACUAGCAAAAUUAGAAGGCAGUACUG [salish99_ex3_r3_087] (puzzle: Exclusion 3)”, for which the “apparent KD of MS2 coat protein” value under setting [2] worked out at 11.3 nM.

Take “AGUACUAACACGAAGGUGUUAGUACAAUAAGCUUGUGAAACAUGAGGAUCACCCAUGUCCUCAUAAGCUCGUCUUAU [salish99_TOv2_r3_033] (puzzle: Sensor v3, turn-off variant 2)”: the “apparent KD of MS2 coat protein” value under setting [3] was found to be 17.5 nM, the “apparent KD of MS2 coat protein” value under setting [2] was determined as 702 nM and the “apparent KD of MS2 coat protein” value under setting [4] amounted to 17.6 nM.

On to “AGAAAUGCCCAUGGCCGCAAGCUUUUUACUUGUCUUACCACAUGAGGAUCACCCAUGUGACAUGGGCUCCUUAUAAU [Oranla] (puzzle: Sensor v3, turn-off variant 2)”, for which the “apparent KD of MS2 coat protein” value by setting is: under setting [3], 15.8 nM; under setting [2], 7.4 nM; under setting [4], 13 nM.

For the sequence “CAUUACUACAAGCUAUGGGACAUGAGGAUCACCCAUGUUCGUCUUAUUGAUCUAGGUACGCUGACGUACCUAGAUCU [JL-sv1-2.22 Brourd mod] (puzzle: Sensor v3, turn-off variant 1)”, the “apparent KD of MS2 coat protein” value under setting [3] was determined as 16.6 nM, the “apparent KD of MS2 coat protein” value under setting [2] is 21.6 nM and the “apparent KD of MS2 coat protein” value under setting [4] is 15.7 nM.

As to “GGGAUGUCAGGAUAUCCGAAUAAUAACAACAAUAACAGAAAGGAGAAGGGACAUGAGGAUCACCCAUGUAAAAG [Bemadiin] (puzzle: Exclusion 4)”, the “apparent KD of MS2 coat protein” value by setting is: under setting [3], 39.9 nM; under setting [2], 37.5 nM; under setting [4], 40 nM.

With “AGAUCAAUCACGAAAGUGAUUGAUCAAAUUAGUUUUUAAACAUGAGGAUCACCCAUGUCCUAGUGGGCUAGUCUUAU [Mat - Sensor v2 - var 2 - Mod - D142] (Eterna round: R96, puzzle: Sensor v2, turn-off variant 2)”, the “apparent KD of MS2 coat protein” value reads like this: (input ligand: FMN 200 uM) 254 nM; under setting [1], 177 nM; (input ligand: none) 249 nM.

On to “ACCAUUUCGGUGGUCUAAGAACAUGAGGAUCACCCAUGUAUCGAGGAUAUCCCAAGCAGACUAUGGGAGAAGGUGAACAGAAGG [Eternabot solution 24] (Eterna round: R96, puzzle: Exclusion NG 3)”, for which the “apparent KD of MS2 coat protein” value is, setting by setting: (input ligand: FMN 200 uM) 40.1 nM; under setting [1], 25.6 nM; (input ligand: none) 41.7 nM.

As to “GUAAUGAUUGUGAGGAUAUUUCAUAGAUAGAUAUUAGAGAAGGUACAUGAGGAUCACCCAUGUGUGAUCAUACA [Brourd's EX4 #73] (Eterna round: R97, puzzle: Brourd's mod of Exclusion 4)”, the “apparent KD of MS2 coat protein” value runs as follows: (input ligand: FMN 200 uM) 672 nM; (input ligand: none) 1050 nM.

“UGCAUGCUAGGAUAUACGAAACAUUAGGGUUCUUUGUGUGAACAUGAGGAUCACCCAUGUAGAAGGAGCGUGCU [Mod8 of JL-ex2-2.15 mat747 mod] (puzzle: Exclusion 2)”: the “apparent KD of MS2 coat protein” value under setting [2] came to 127 nM.

Take “CGUGCGUAUGUGAGGAUAUGCUGGUCCUUGGCUCGGCAGAAGGCACAUGAGGAUCACCCAUGUGGUGUCGUACU [salish99_Bmod_ex4_069] (puzzle: Brourd's mod of Exclusion 4)”: under setting [2], the “apparent KD of MS2 coat protein” value was determined as 50.2 nM.

With “AUACACUAAGUGAGGAUAUCGAUUUCUUUAAGGAUCGAGAAGGCACAUGAGGAUCACCCAUGUUUGACGUGAAU [JR_BMOE4_Sub096] (puzzle: Brourd's mod of Exclusion 4)”, the “apparent KD of MS2 coat protein” value under setting [2] was found to be 30.3 nM.

Regarding “UUAUAUAGAGUGAGGAUAUGCUGGUCCUUGGAUCAGCAGAAGGCACAUGAGGAUCACCCAUGUAAUAUAUUAUU [Mat - Exclusion 4 - JL Mod - D37] (puzzle: Brourd's mod of Exclusion 4)”, the “apparent KD of MS2 coat protein” value under setting [2] came to 21.1 nM.
